Test results as given in the DeepSol protein solubility set.

Test: soluble on expression in E. coli; label from the status in PepcDB or PDB records

Sequence | soluble on expression in E. coli
MSTQNYPATGRLAEPEYGTLLVKNVKIYGEGEPVNVLITDGVITDTHAGDVKADREVDGQGGVLLPGLVDIHVHLREPGREDTETIATGSAAAAKGGFTAVFTMANTMPVMDQPIIAESVWHKGQDIGLCDVHPVGSITKGLEGKEITEFGMMAHSQAKVRMFSDDGKCVDNPLIMRRAVEYARGTDVLLAQHCEDPRLTDGAVAHEGAMAAKLGLGGWPRVAEESIVARDAILARDYGGRMHICHASTQGTVELVKWAKEHEIPLTAEVTPHHLLLTDERLATYDGVNRVNPPLRENSDILALRDALLNGTIDCVATDHAPHGSEDKCCEFEHAKPGMLGLETSLAVVAAVFVETGLADWRFVAKVMSERPAEIVKLPGHGRPIAVGEPANLTIVDPGAKWTASGEKMASKATNTPYEGMEFNARVTTTILRGRLTCVDGEPTQARA | not soluble
MGSDKIHHHHHHMIRSLWIAKTGLDAQQMQMDVIANNLANVSTNGFKKTRAVFEDLLYQNIRQPGAQSSQQTQLPSGLQLGTGVRPVATERIHIQGNLQQTGNNKDVAISGEGFFQVLLPDGSTAYTRDGAFQLDNQGQLVTASGFTVQPAIIVPPNALSLTVGRDGTVSVVLPDNPNNAVQIGTFQLATFINPAGLQSRGENLYIETAASGPANINQPGLNGTGLLVHQYLETSNVNVAEELVSMIQTQRAYEINSKAISTSDQMLQRLSQL | not soluble
MFRMPIVTMERVDSFSAAHRLHSEKLSDAENKETFGKCNNSNGHGHNYVWKVKLRGEVDPTSGMVYDLAKLKKEMSLVLDTVDHRNLDKDVEFFKTTVSTSENVAIYMFEKLKSVMSNPSVLYKVTIEETPKNIFTYKGS | soluble
MLGAMFRAGTPMPPNLNSQGGGHYFIDRDGKAFRHILNFLRLGRLDLPRGYGETALLRAEADFYQIRPLLDALRELEASQGTPAPTAALLHADVDVSPRLVHFSARRGPHHYELSSVQVDTFRANLFCTDSECLGALRARFGVASGDRAEGSPHFHLEWAPRPVELPEVEYGRLGLQPLWTGGPGERREVVGTPSFLEEVLRVALEHGFRLDSVFPDPEDLLNSRSLRFVRH | soluble
SRLITHNMLSCNIKGVTSGFPLRIEAGNVIEKEVDFNPDFIRHMFAKIEWKALVEGARSMGYAELPEESPDAAVLKSDEPFLKKLHHALLELHLEEGALVCPETGRKFPVNKGIPNMLLHEDEV | soluble
SAAAADERSPEDGEDEEEEEQLVLVELSGIIDSDFLSKCENKCKVLGIDTERPILQVDSCVFAGEYEDTLGTCVIFEENVEHADTEGNNKTVLKYKCHTMKKLSMTRTLLTEKKEGEENIGGVEWLQIKDNDFSYRPNMICNFLHENEDEEVVASAPDKSLELEEEEIQMNDSSNLSCEQEKPMHLEIEDSGPLIDIPSETEGSVFMETQMLP | not soluble
MPRQRRQGIVYDVREQGTARLIFDENRTKFDGVLETISGETMLVRGRVTSPTDLASTSATTDGSIVMDIDVVDGEEGSAFHVTGVKVLVDEHYAAIDSTAIKFEALDRLIGMKAAVEIQQHISPEIAYDSKEVFIGKMQIHLLTSHRPSPSSRRESVCAENNDIKILEVSDDFLA | not soluble
MGSDKIHHHHHHMQKLASGEQLMKVNGDTVATQGQLAKLLPLQHIDPQSTDIIDHGAKPRRQLLDWLMFHVEPEFYFAWQYYSRALKQRNTLLKTRRNLSLADLEPWNKMLSDYGEILHSQRLSIVEQWNVYFQNDLSQLLPDLEIELEYSPGFHTEQGLMQDLLNQHQKDIERRYTEYGPHRADLRLKTPFGHADDVLSRGQKKLLIIALKLSQIAMLHASNKETVVLLDDLTAELDLTAQQRLIERLSQLGSQVFMTTLDHASVKKHLHDLSISYQLFSVESGQVSLAAS | not soluble
MEFDKLYGPSNVENRLVQVKATTAEAIHFNRQIQPIIENRCVVCHGCYDAPCQLKMESRAGIERGANKAMVYNGERLLTANISASLTKLTELKRDNLEPLRQQGYFPVLNERQQTEQANTQSSLFYQMLQLKKQHPLPSEPILNESFDVALDRSQQCPTIEEFEQYKDKYPLGGMPYALPALSTTEHDQLTDWIARGAIMPDSVPPNAKEQQMINRWEKLLNGSSAKEQLIARYLFEHLYLANLYFDKAQSSYFKLVRSSSPSGEKVAVITTRRPFDSPYADGSTDAIVDKPQVYYRLIKHNDTIIAKRHMPYPFGESKLARISELFYQPDYPVTTLPDYQLANASNPFKTFQAIPDKARYQFLLDQAQFSIMNFIKGPVCRGQIALNVIEDNFWVFFLSPNNFDHYPSEQFIKANTELLQLPAGTSDKSLSLLYWRQYAKSQQEYVKNKLAYVEGLNLQPNQLNLDLIWSGKGNPNASLTVFRHFDSASVLQGFVGPTPKTAWLISYPLLERIHYLLVAGFDVYGSVSHQLKTRLYMDFLRMEAESNFISFLPKDERKAIHEYWYRETGDDIKDYIFSDGFYQLPETGMNYQSNKHQEELFQLVGQHTKNTNVSQFNLSSLAQSSADKIIANLSQLPNESVALLPQVSYVMVSNGDDNQVYSLINNSAHSNVAHLFSEENRRLPREDNLAILRGVVGTYPNAFFKVEQAQLSEFVSNLNAIKTEQDYRKLKDQFAIRRTNPKFWIFADELHAWYKTNQPKSAGLLDFNRLENRLEHHHHHH | not soluble
